Data taken from the supplement of paper PMC10126150.
± gives the standard deviation of the averaged measurements.

Test system: ATP
Assay: switch fluorescence ratio, 500 uM ATP over buffer (Cy3 cluster intensity, sum of 5 cycles each) (fold (ratio)); higher = stronger signal-on switching upon ATP binding; sequences stand for … in TCGTCGGCAGCGTCAGATGTGTATAAGAGACAGTTTTTTTTTTTTTTTTTTTTTTTTT…TC
Settings: aptamer strand: ATP DNA aptamer (quencher-CACCTGGGGGAGTATTGCGGAGGAAGG + anchor), 100 nM annealed; ATP concentration: 500 uM
Procedure, shortened: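 The fluorescence ratio divides summed target-cycle Cy3 intensity by summed buffer-cycle Cy3 intensity for each cluster and is averaged per switch-domain sequence. Cy3-labelled switching-strand clusters on a modified Illumina MiSeq flow-cell were annealed to 100 nM quencher-labelled ATP aptamer, then imaged in selection buffer and again after 15 min with 500 uM ATP at 22 °C. Five such cycles were run, with NaOH stripping and re-annealing between them, and clusters outside 100-1000 RFU were excluded.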
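Also: ATP exposure 15 min at 22 °C before imaging.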

TACATCATGG showed a switch fluorescence ratio of 1.04 ± 0.019.
With TTCTCATTGG the switch fluorescence ratio was 0.9893 ± 0.0039.
In the case of CTATTTCTAC, the switch fluorescence ratio is reported as 1.03 ± 0.046.
With GTTGGCGTTT the switch fluorescence ratio was 1.02 ± 0.08.
ACTTTAGCGG showed a switch fluorescence ratio of 0.99001 ± 0.0002.
With ACGTAGACGT the switch fluorescence ratio was 1.02 ± 0.018.
In the case of GGGAGGCTTC, the switch fluorescence ratio is reported as 1 ± 0.021.
ATTTTTTCAA showed a switch fluorescence ratio of 0.981 ± 0.015.
With GTAAAAGAAG the switch fluorescence ratio was 0.964 ± 0.02.
TGCGCCGTGG gave a switch fluorescence ratio of 1.02 ± 0.02.
Work on GCGGAGAGGT yielded a switch fluorescence ratio of 1.03 ± 0.022.
Work on GAGCCGGAGC yielded a switch fluorescence ratio of 0.993 ± 0.012.
TAATGTTTGC showed a switch fluorescence ratio of 1.01 ± 0.033.
Sequence GGGATGAATG has a switch fluorescence ratio of 0.9773 ± 0.0079.
In the case of ACGAGATGAC, the switch fluorescence ratio is reported as 1.05 ± 0.067.
In the case of TTGGTGGGAA, the switch fluorescence ratio is reported as 1 ± 0.025.
In the case of CATCTTGAAA, the switch fluorescence ratio is reported as 1.028 ± 0.0097.
With GCGGAAGATC the switch fluorescence ratio was 1.03 ± 0.021.
For GCACGGGGAA, the switch fluorescence ratio was 1.02 ± 0.028.
TCTGGTAATT gave a switch fluorescence ratio of 1 ± 0.02.
ATGAGGGCTT gave a switch fluorescence ratio of 0.981 ± 0.055.
Work on TGGGGGTACT yielded a switch fluorescence ratio of 1.01 ± 0.011.
In the case of CTTTTTGGGG, the switch fluorescence ratio is reported as 0.981 ± 0.029.
Sequence TTATGAAGGT has a switch fluorescence ratio of 1.02 ± 0.06.
With AACATACAGG the switch fluorescence ratio was 1.28 ± 0.019.
TTGTAATTCT showed a switch fluorescence ratio of 1.167 ± 0.0018.
In the case of AGGGGCTTTT, the switch fluorescence ratio is reported as 0.998 ± 0.012.
TACAACTTTC gave a switch fluorescence ratio of 1.08 ± 0.051.
AGGGACGGTG was tested, and the switch fluorescence ratio was 1 ± 0.056.
CAGGATGTAC was tested, and the switch fluorescence ratio was 1.05 ± 0.063.
In the case of TTTTTTAGTC, the switch fluorescence ratio is reported as 1 ± 0.04.
GTTGGAAGGT was tested, and the switch fluorescence ratio was 1.02 ± 0.012.
In the case of ACTACGTAAA, the switch fluorescence ratio is reported as 0.997 ± 0.046.
Work on CGCATCGTAA yielded a switch fluorescence ratio of 1.074 ± 0.0044.
Work on CGGTTTTTAG yielded a switch fluorescence ratio of 1.01 ± 0.044.
Sequence AGCAGAAAGT has a switch fluorescence ratio of 1 ± 0.04.
For GTTGTTTTCG, the switch fluorescence ratio was 0.987 ± 0.039.
Sequence GACGTGGAAG has a switch fluorescence ratio of 1.01 ± 0.024.
TTGAGTTTTA was tested, and the switch fluorescence ratio was 1.01 ± 0.021.
CACGGGGGGA gave a switch fluorescence ratio of 0.99 ± 0.033.
With ACTGATTGGC the switch fluorescence ratio was 1.18 ± 0.18.
TAACAAGGGT gave a switch fluorescence ratio of 1 ± 0.016.
Sequence TAAGATGTAG has a switch fluorescence ratio of 0.9957 ± 0.0011.
AGTTTGAAAT gave a switch fluorescence ratio of 1.01 ± 0.03.
In the case of AATGAATTGT, the switch fluorescence ratio is reported as 1.02 ± 0.022.
GTTGACGCTA was tested, and the switch fluorescence ratio was 1.07 ± 0.024.
ATATGTTTG was tested, and the switch fluorescence ratio was 0.973 ± 0.047.
For GGTGTGGATC, the switch fluorescence ratio was 1.021 ± 0.0029.
For TATCGTTTAA, the switch fluorescence ratio was 0.987 ± 0.032.
With CAGCTGGTTT the switch fluorescence ratio was 1.004 ± 0.0077.
AGGCGAAACG gave a switch fluorescence ratio of 0.97 ± 0.065.
GAACACGGTA gave a switch fluorescence ratio of 1.204 ± 0.0023.
GGGGTTCCGC was tested, and the switch fluorescence ratio was 1.05 ± 0.026.
In the case of GGGGGGTGAG, the switch fluorescence ratio is reported as 0.974 ± 0.037.
Work on CGTTTTGGGA yielded a switch fluorescence ratio of 0.98 ± 0.013.
TTTGCCGGGG was tested, and the switch fluorescence ratio was 1.02 ± 0.06.
In the case of GTGACCGGGA, the switch fluorescence ratio is reported as 1 ± 0.027.
TCGAACCGAG was tested, and the switch fluorescence ratio was 1.2 ± 0.024.
Work on CGGAGCGCGT yielded a switch fluorescence ratio of 0.991 ± 0.019.
CCTCTCCGTA was tested, and the switch fluorescence ratio was 1.32 ± 0.083.
Work on ATCAAGCAGT yielded a switch fluorescence ratio of 1.41 ± 0.47.
AGCTGAGTAA was tested, and the switch fluorescence ratio was 1.036 ± 0.0085.
With GTTTAATTTA the switch fluorescence ratio was 1.01 ± 0.03.
CTGATGTCGT gave a switch fluorescence ratio of 1.01 ± 0.033.
Work on TAACTAGGAG yielded a switch fluorescence ratio of 1.12 ± 0.16.
With TTTTTACTGC the switch fluorescence ratio was 0.997 ± 0.029.
Sequence ATAGCTGATT has a switch fluorescence ratio of 0.983 ± 0.034.
GGGAGTTTTG was tested, and the switch fluorescence ratio was 1 ± 0.018.
With AAGATGTATG the switch fluorescence ratio was 0.99 ± 0.02.
For GCGCTCATAG, the switch fluorescence ratio was 1.15 ± 0.018.
Work on GGAGGGGCTG yielded a switch fluorescence ratio of 1.02 ± 0.085.
For GGGTAGGGCC, the switch fluorescence ratio was 1.026 ± 0.0023.
With TCTGTGGGGG the switch fluorescence ratio was 1.01 ± 0.016.
For AACAGAGTAG, the switch fluorescence ratio was 0.976 ± 0.028.
GATTGAATGG was tested, and the switch fluorescence ratio was 0.985 ± 0.055.
Work on GTGCGTTTGG yielded a switch fluorescence ratio of 0.971 ± 0.022.
TTGGGGGTTG showed a switch fluorescence ratio of 1 ± 0.044.
ATGGGTGTCC was tested, and the switch fluorescence ratio was 1.004 ± 0.0056.
Sequence GGTGATGGTG has a switch fluorescence ratio of 0.976 ± 0.047.
ATGTCCAGGG showed a switch fluorescence ratio of 1.21 ± 0.04.
With GCTATTGGGA the switch fluorescence ratio was 1.01 ± 0.022.
For TCGGTGGAGA, the switch fluorescence ratio was 1.01 ± 0.024.
For TTGAGATTGG, the switch fluorescence ratio was 0.998 ± 0.03.
Sequence CTGCTACAGT has a switch fluorescence ratio of 1.03 ± 0.02.
In the case of CGGGTTAAAA, the switch fluorescence ratio is reported as 0.9714 ± 0.0034.
In the case of TCATAAGTAT, the switch fluorescence ratio is reported as 0.995 ± 0.086.
Work on AGTTGAGAG yielded a switch fluorescence ratio of 1.03 ± 0.017.
With GTGAAGGGGA the switch fluorescence ratio was 1.09 ± 0.11.
For TCCTAGCACT, the switch fluorescence ratio was 1.65 ± 0.12.
TCGGGGGGTA showed a switch fluorescence ratio of 0.985 ± 0.021.
CCAGAAAGGA showed a switch fluorescence ratio of 0.97 ± 0.029.
In the case of TGCTGGTTTT, the switch fluorescence ratio is reported as 1.01 ± 0.037.
Sequence TTTTGGACAT has a switch fluorescence ratio of 0.993 ± 0.029.
With AATGTGGTAA the switch fluorescence ratio was 0.959 ± 0.043.
Work on CAAAGAGTGG yielded a switch fluorescence ratio of 1.0063 ± 0.00092.
In the case of CCTTTAGGTT, the switch fluorescence ratio is reported as 1 ± 0.049.
In the case of TGTGAGAGGT, the switch fluorescence ratio is reported as 0.995 ± 0.012.
Sequence CGGGGTATTT has a switch fluorescence ratio of 1 ± 0.022.
With TTCAGGGTCC the switch fluorescence ratio was 1.03 ± 0.035.
GGGCCGGGAG showed a switch fluorescence ratio of 0.984 ± 0.02.
With ATAGGAGTTC the switch fluorescence ratio was 1.03 ± 0.023.
Sequence TATGTGGAGG has a switch fluorescence ratio of 0.97262 ± 0.00028.
AGAAGGGGAT was tested, and the switch fluorescence ratio was 1.01 ± 0.021.
AGGTGTTGGT showed a switch fluorescence ratio of 1.03 ± 0.025.
With TAGGGGGTT the switch fluorescence ratio was 1.01 ± 0.026.
In the case of CTGAATATTC, the switch fluorescence ratio is reported as 1.021 ± 0.0036.
GCCTATTTGG gave a switch fluorescence ratio of 0.998 ± 0.023.
GCGAAAAAGG gave a switch fluorescence ratio of 0.997 ± 0.035.
For TAGGAGGGGA, the switch fluorescence ratio was 1.01 ± 0.029.
ATGAAAATAC gave a switch fluorescence ratio of 1.01 ± 0.03.
AAAGTGTGCG was tested, and the switch fluorescence ratio was 1.01 ± 0.023.
In the case of TTTATCCGGT, the switch fluorescence ratio is reported as 1.01 ± 0.042.
AGTTGTGTTT gave a switch fluorescence ratio of 0.966 ± 0.043.
TGTATCGTCG gave a switch fluorescence ratio of 0.944 ± 0.023.
In the case of TAAGGAGGTG, the switch fluorescence ratio is reported as 1.033 ± 0.008.
With GGGTGAGGGA the switch fluorescence ratio was 1.01 ± 0.035.
CGGGTGGGCA gave a switch fluorescence ratio of 0.945 ± 0.019.
AAAGAGTTGC gave a switch fluorescence ratio of 0.9785 ± 0.0069.
Work on TTGTTATTTA yielded a switch fluorescence ratio of 0.9903 ± 0.0019.
In the case of TGGGAGGCCT, the switch fluorescence ratio is reported as 1.02 ± 0.021.
For TTGATCCAGT, the switch fluorescence ratio was 0.997 ± 0.031.
For TTAACTAGAT, the switch fluorescence ratio was 1.02 ± 0.016.
TATCGAAGTG gave a switch fluorescence ratio of 0.993 ± 0.019.
Sequence CGTGGGTTGT has a switch fluorescence ratio of 0.9956 ± 0.0018.
With TTGCGCCGC the switch fluorescence ratio was 1.138 ± 0.0037.
CTTAGTGGCG was tested, and the switch fluorescence ratio was 0.9757 ± 0.0038.
TTACCGGCGC was tested, and the switch fluorescence ratio was 1.14 ± 0.18.
Work on GAGTGGGGTT yielded a switch fluorescence ratio of 1.011 ± 0.0024.
Sequence TTTCTCGGCT has a switch fluorescence ratio of 1 ± 0.035.
GAATGCCGGG showed a switch fluorescence ratio of 1.03 ± 0.054.
For AACAAGGGCG, the switch fluorescence ratio was 1.03 ± 0.018.
ATAGGAACTT showed a switch fluorescence ratio of 1.02 ± 0.013.
With GGCGTGTCAG the switch fluorescence ratio was 0.951 ± 0.039.
With GAATTCAGTG the switch fluorescence ratio was 0.9953 ± 0.0096.
With GGTCTTAGTT the switch fluorescence ratio was 0.987 ± 0.035.
With ACATGGCTAA the switch fluorescence ratio was 1.08 ± 0.068.
AGATGGCTAG showed a switch fluorescence ratio of 0.999 ± 0.018.
In the case of GTGTGAGGGC, the switch fluorescence ratio is reported as 0.948 ± 0.035.
CCGGTGTGTT gave a switch fluorescence ratio of 1.03 ± 0.086.
CAGCGGGATT showed a switch fluorescence ratio of 0.995 ± 0.036.
For TAGGTAGTTG, the switch fluorescence ratio was 0.952 ± 0.051.
Sequence GAAAGTAGGA has a switch fluorescence ratio of 1.02 ± 0.029.
With TTGCGGTATG the switch fluorescence ratio was 0.986 ± 0.022.
Work on CAAGGGGTTT yielded a switch fluorescence ratio of 0.99 ± 0.033.
GAGGGGGTGG showed a switch fluorescence ratio of 1 ± 0.064.
Sequence CTCAGGGGGG has a switch fluorescence ratio of 1.02 ± 0.04.
Work on AGACAAATGC yielded a switch fluorescence ratio of 1.19 ± 0.21.
Sequence GAGGCTCATT has a switch fluorescence ratio of 0.964 ± 0.035.
GATTGCGAGA was tested, and the switch fluorescence ratio was 1.01 ± 0.036.
Work on GACGCGCGTA yielded a switch fluorescence ratio of 1.01 ± 0.027.
For GGATTACGGT, the switch fluorescence ratio was 1.01 ± 0.03.
TGATAATTTG was tested, and the switch fluorescence ratio was 1.006 ± 0.01.
In the case of CTGAGGGGGG, the switch fluorescence ratio is reported as 0.985 ± 0.019.
TCATATTATC was tested, and the switch fluorescence ratio was 1 ± 0.029.
For TCGGGTTTTA, the switch fluorescence ratio was 1.03 ± 0.039.
In the case of ACTTGACTTG, the switch fluorescence ratio is reported as 1.03 ± 0.018.
TGCAGTGGGG was tested, and the switch fluorescence ratio was 1.014 ± 0.0085.
